US20190300590A1 (PROTAGONIST THERAPEUTICS, published 2019)
*1 amine or outer side, *2 acyl side, *3 side chain or, on linkers, in order; H or OH if unused. Bridges are numbered along the chain shown (N, C = ends). Primed or numbered codes have the meaning given here. [ ]: non-standard residue; d: D form. Phe(4-OMe)(3) = O-methyl-L-tyrosine (4-methoxy-L-phenylalanine), COc1ccc(C[C@H](N[*:1])C(=O)[*:2])cc1; Phe(4-OMe) = 4-methoxy-L-phenylalanine (O-methyl-L-tyrosine), COc1ccc(C[C@H](N[*:1])C(=O)[*:2])cc1; Phe(4-OMe)(4) = O-methyl-L-tyrosine, COc1ccc(C[C@H](N[*:1])C(=O)[*:2])cc1; Trp(6-Cl) = N[C@@H](Cc1c[nH]c2cc(Cl)ccc12)C(=O)O; 2Nal = N[C@@H](Cc1ccc2ccccc2c1)C(=O)O; AEF = NCCOc1ccc(C[C@H](N)C(=O)O)cc1; αMeL = CC(C)C[C@](C)(N)C(=O)O; Suc = O=C(CCC(=O)[*:2])[*:1]; αMeK = C[C@](N)(CCCCN)C(=O)O; Abu = CC[C@H](N)C(=O)O

T1: IL-23R on DB cells (human, UniProt Q5VWK5 24-629)
T1 sequence (looked up): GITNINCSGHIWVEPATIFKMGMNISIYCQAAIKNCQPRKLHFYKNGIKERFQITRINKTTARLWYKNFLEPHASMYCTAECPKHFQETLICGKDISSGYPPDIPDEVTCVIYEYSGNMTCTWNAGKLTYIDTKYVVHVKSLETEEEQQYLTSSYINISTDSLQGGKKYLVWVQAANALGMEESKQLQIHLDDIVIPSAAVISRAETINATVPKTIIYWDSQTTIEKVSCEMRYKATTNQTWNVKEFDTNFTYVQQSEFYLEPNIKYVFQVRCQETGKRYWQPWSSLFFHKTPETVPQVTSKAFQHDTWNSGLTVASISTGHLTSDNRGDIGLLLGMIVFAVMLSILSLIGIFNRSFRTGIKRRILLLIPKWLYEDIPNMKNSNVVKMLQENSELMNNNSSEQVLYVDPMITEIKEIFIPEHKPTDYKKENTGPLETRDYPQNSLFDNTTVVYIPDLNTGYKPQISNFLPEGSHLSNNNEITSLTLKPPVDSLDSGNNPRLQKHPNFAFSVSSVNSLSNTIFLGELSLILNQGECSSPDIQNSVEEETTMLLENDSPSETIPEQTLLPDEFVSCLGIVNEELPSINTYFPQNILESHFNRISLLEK

T2: Rat IL-23R_huFC (rat, UniProt F1LX96 39-369)
T2 sequence: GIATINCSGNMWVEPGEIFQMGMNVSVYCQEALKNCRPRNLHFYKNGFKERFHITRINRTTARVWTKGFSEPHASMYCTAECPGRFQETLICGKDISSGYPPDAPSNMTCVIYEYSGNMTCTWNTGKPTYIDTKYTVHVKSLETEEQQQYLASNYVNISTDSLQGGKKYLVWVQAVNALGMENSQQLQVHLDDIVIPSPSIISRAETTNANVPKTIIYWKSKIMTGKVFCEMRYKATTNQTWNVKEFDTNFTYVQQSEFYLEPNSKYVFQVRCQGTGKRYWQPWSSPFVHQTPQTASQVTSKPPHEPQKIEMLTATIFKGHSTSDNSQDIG

T3: IL23R_huFC (human, UniProt Q5VWK5 24-353)
T3 sequence (looked up): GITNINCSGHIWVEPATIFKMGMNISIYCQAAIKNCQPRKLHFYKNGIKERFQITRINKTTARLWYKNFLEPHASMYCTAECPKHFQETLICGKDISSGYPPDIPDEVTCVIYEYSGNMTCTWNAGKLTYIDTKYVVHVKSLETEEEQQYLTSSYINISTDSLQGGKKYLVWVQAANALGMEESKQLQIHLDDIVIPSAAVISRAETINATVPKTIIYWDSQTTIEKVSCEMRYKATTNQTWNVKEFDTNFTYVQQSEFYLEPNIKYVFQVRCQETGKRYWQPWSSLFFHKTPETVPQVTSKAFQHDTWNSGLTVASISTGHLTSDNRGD

T4: IL23R_huFC (human, UniProt Q5VWK5 24-353)
T4 sequence (looked up): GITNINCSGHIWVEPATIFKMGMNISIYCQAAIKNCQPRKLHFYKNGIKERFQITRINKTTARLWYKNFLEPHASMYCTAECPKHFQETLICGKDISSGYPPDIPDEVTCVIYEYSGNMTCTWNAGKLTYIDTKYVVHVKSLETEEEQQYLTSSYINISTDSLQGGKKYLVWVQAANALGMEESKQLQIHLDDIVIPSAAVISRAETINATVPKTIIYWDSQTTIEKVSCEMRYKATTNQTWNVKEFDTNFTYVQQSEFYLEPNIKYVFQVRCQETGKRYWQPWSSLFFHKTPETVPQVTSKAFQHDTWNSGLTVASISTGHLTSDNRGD

T5: IL-23R on human cells (IL-23R-expressing DB cells; human NK cells) (human, UniProt Q5VWK5 24-629)
T5 sequence (looked up): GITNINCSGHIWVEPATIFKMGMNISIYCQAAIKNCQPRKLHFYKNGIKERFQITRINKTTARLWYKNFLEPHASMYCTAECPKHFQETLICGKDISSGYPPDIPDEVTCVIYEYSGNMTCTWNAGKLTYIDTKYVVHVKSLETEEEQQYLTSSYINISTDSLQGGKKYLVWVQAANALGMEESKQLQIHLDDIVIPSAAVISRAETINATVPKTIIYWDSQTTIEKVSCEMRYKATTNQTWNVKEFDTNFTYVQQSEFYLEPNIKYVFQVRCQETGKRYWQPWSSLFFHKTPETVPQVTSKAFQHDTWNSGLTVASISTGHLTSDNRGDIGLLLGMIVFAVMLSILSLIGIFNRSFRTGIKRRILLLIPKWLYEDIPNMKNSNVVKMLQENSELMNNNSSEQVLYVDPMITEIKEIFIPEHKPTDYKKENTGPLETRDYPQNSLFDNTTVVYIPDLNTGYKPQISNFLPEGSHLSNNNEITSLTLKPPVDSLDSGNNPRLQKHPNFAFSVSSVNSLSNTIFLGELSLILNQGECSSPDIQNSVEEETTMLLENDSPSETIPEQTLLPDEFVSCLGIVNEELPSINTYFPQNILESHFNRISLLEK


Assays:
IL-23R on DB cells = biological target: T1, IL-23R on DB cells; experiment: cell-based or functional assay
Rat IL-23R_huFC [1] = biological target: T2, Rat IL-23R_huFC; experiment: rat IL-23R competitive binding ELISA
IL23R_huFC [2] = biological target: T3, IL23R_huFC; experiment: IL23-IL23R competitive binding ELISA
Rat IL-23R_huFC [3] = biological target: Rat IL-23R_huFC (rat); experiment: rat ELISA vs IL-23
IL23R_huFC [4] = biological target: T4, IL23R_huFC; experiment: human ELISA vs IL-23
[5] = biological target: T5, IL-23R on human cells …; experiment: cell-based or functional assay
IL23R_huFC [6] = biological target: T4, IL23R_huFC; experiment: human ELISA vs IL-23; remark: listed apart in the source

Row | Binder | IC50 (Rat IL-23R_huFC [3]) | pStat3 HTRF IC50 [5] | further results
1 | XQTWQXFXLKNN (Ac; Pen-Pen disulfide; Phe[4-(2-aminoethoxy)]; 2-Nal; α-MeLeu; Lys(Ac); NH2) [Ac-[Pen]-QTWQ-[Pen]-[Phe[4-(2-aminoethoxy)]-[2-Nal]-[α-MeLeu]-[Lys(Ac)]-NN-NH2] | – | – | pStat3 HTRF IC50 (IL-23R on DB cells): < 10 nM; IC50 (Rat IL-23R_huFC [1]): < 10 nM; IC50 (IL23R_huFC [2]): < 10 nM
2 | Ac-[Abu]QTWQC[Phe(4-OMe)]W[αMeK]K(Ac)NG-NH2 (thioether 1-6) [Ac-Cyclo-[[Abu]-QTWQC]-[Phe(4-OMe)]-W-[α-MeLys]-[Lys(Ac)]-NG-NH2] | 10 to 25 nM | – | IC50 (IL23R_huFC [4]): 10 to 25 nM
3 | XQTWQXYWLENG (Ac; Pen-Pen disulfide; hLeu; NH2) [Ac-[Pen]-QTWQ-[Pen]-YW-[hLeu]-ENG-NH2] | – | – | IC50 (IL23R_huFC [2]): 100 to 1000 nM
4 | Ac-[Abu]QTWQC[Phe(4-OMe)(3)][2Nal][αMeK]K(Ac)NAE-NH2 (thioether 1-6) [Ac-Cyclo-[[Abu]-QTWQC]-[Phe(4-OMe)]-[2-Nal][α-MeLys]-[Lys(Ac)]-NAE-NH2] | 10 to 25 nM | < 10 nM | IC50 (IL23R_huFC [6]): < 10 nM
5 | Ac-[dK][Abu]QTWQC[Phe(4-OMe)(4)][2Nal][αMeL]ENG-NH2 (thioether 2-7) [Ac-(D)Lys-[Cyclo-[[Abu]-QTWQC]]-[Phe(4-OMe)]-[2-Nal]-[α-MeLeu]-ENG-NH2] | 10 to 25 nM | < 10 nM | IC50 (IL23R_huFC [6]): < 10 nM
6 | EXQTWQXFXKKNG (N-terminal pyroglutamic acid; Pen-Pen disulfide; Phe(4-OMe); 2-Nal; α-MeLys; Lys(Ac); NH2) [pyroglutamic acid-[Pen]-QTWQ[Pen]-[Phe(4-OMe)]-[2-Nal]-[α-MeLys]-[Lys(Ac)]-NG-NH2] | – | – | pStat3 HTRF IC50 (IL-23R on DB cells): < 10 nM; IC50 (Rat IL-23R_huFC [1]): 25 to 100 nM; IC50 (IL23R_huFC [2]): 25 to 100 nM
7 | Ac-[Abu]QT[Trp(6-Cl)]QC[AEF][2Nal][αMeK]ENG-NH2 (thioether 1-6) [Ac-Cyclo-[[Abu]-QT-[6-chloroTrp]-QC]-[Phe[4-(2-aminoethoxy)]]-[2-Nal]-[α-MeLys]-ENG-NH2] | 10 to 25 nM | < 10 nM | IC50 (IL23R_huFC [4]): 10 to 25 nM
8 | Ac-[Abu]QTWQCY[2Nal][αMeK]ENG-NH2 (thioether 1-6) [Ac-Cyclo-[[Abu]-QTWQC]-Y-[2-Nal]-[α-MeLys]-ENG-NH2] | 10 to 25 nM | – | –
9 | Ac-[Abu]QTWQC[Phe(4-OMe)(3)][2Nal][αMeK]K(Ac)NA-NH2 (thioether 1-6) [Ac-Cyclo-[[Abu]-QTWQC]-[Phe(4-OMe)]-[2-Nal][α-MeLys]-[Lys(Ac)]-NA-NH2] | 10 to 25 nM | < 10 nM | IC50 (IL23R_huFC [6]): < 10 nM
10 | XQTWQXFXKKNG (Ac; Pen-Pen disulfide; Phe[4-(2-aminoethoxy)]; 2-Nal; α-MeLys; Lys(Ac); NH2) [Ac-[Pen]-QTWQ-[Pen]-[Phe[4-(2-aminoethoxy)]-[2-Nal]-[α-MeLys]-[Lys(Ac)]-NG-NH2] | – | – | IC50 (Rat IL-23R_huFC [1]): 25 to 100 nM
11 | XQTWQXYWXENG (Ac; Pen-Pen disulfide; α-MeOrn; NH2) [Ac-[Pen]-QTWQ-[Pen]-YW-[α-MeOrn]-ENG-NH2] | – | – | IC50 (Rat IL-23R_huFC [1]): 100 to 1000 nM; IC50 (IL23R_huFC [2]): 100 to 1000 nM
12 | XQTWQXFXKKNG (N-terminal gallic acid; Pen-Pen disulfide; Phe(4-OMe); 2-Nal; α-MeLys; Lys(Ac); NH2) [gallic acid-[Pen]-QTWQ[Pen]-[Phe(4-OMe)]-[2-Nal]-[α-MeLys]-[Lys(Ac)]-NG-NH2] | – | – | IC50 (IL23R_huFC [2]): 1000 to 10000 nM
13 | XQTWQCFXXKNG (as bracketed in name; thioether cyclo) [Ac-Cyclo-[[Abu]-QTWQC]-[Phe(4-OMe)]-[2-Nal]-[α-MeOrn]-[Lys(Ac)]-NG-NH2] | 10 to 25 nM | < 10 nM | IC50 (IL23R_huFC [4]): 10 to 25 nM

Continued, in another order:

Row | IC50 (Rat IL-23R_huFC [3]) | pStat3 HTRF IC50 [5] | Binder | further results
14 | 10 to 25 nM | – | Ac-[Abu]QTWQC[AEF][2Nal][αMeK]K(Suc)NG-NH2 (thioether 1-6) [Ac-Cyclo-[[Abu]-QTWQC]-[Phe[4-(2-aminoethoxy)]]-[2-Nal]-[α-MeLys]-[Lys(succinic acid)]-NG-NH2] | –
15 | 10 to 25 nM | < 10 nM | Ac-[Abu]QTWQC[Phe(4-OMe)(3)][2Nal][αMeK]K(Ac)NS-NH2 (thioether 1-6) [Ac-Cyclo-[[Abu]-QTWQC]-[Phe(4-OMe)]-[2-Nal][α-MeLys]-[Lys(Ac)]-NS-NH2] | IC50 (IL23R_huFC [4]): 10 to 25 nM
16 | 10 to 25 nM | < 10 nM | Ac-[Abu]QTWQC[AEF][2Nal][αMeK]DNG-NH2 (thioether 1-6) [Ac-Cyclo-[[Abu]-QTWQC]-[Phe[4-(2-aminoethoxy)]]-[2-Nal][α-MeLys]-DNG-NH2] | IC50 (IL23R_huFC [6]): < 10 nM
17 | 10 to 25 nM | – | Ac-[Abu]QTWQC[AEF]W[αMeK]ENG-NH2 (thioether 1-6) [Ac-Cyclo-[[Abu]-QTWQC]-[Phe[4-(2-aminoethoxy)]-W-[α-MeLys]-ENG-NH2] | –
18 | 10 to 25 nM | – | Ac-[Abu]QTWQC[Phe(4-OMe)(3)][2Nal][αMeK]K(Ac)NG-NH2 (thioether 1-6) [Ac-Cyclo-[[Abu]-QTWQC]-[Phe(4-OMe)]-[2-Nal][α-MeLys]-[Lys(Ac)]-NG-NH2] | –
